B1: mRNA-splicing (parent)
chain: AGUUGCUGCUGGGAGCUCCAGCACAGUGAAAUGGACAGAAGGGCAGAGCAA

Variants of: B1
Experiment: exon inclusion enrichment index; higher = more inclusion; WT1 exon 5 minigene, HEK293

Variant | exon inclusion enrichment index
AGUUCGCGCCGGGAGCUCCAAAACAGUGAAAUGGACAGAAGGGCAGAGCAA | 1.7
AGUUCGCGCCGGGAGCUCCAAUACAGUGAAAUGGACAGAAGGGCAGAGCAA | 1.87
AGUUCGCGCCGGGAGCUCCAAGACAGUGAAAUGGACAGAAGGGCAGAGCAA | 3.81
AGUUCGCGCCAUGAGCUCCAGCACAGUGAAAUGGACAGAAGGGCAGAGCAA | 1.83
AGUUCGCGCCACGAGCUCCAGCACAGUGAAAUGGACAGAAGGGCAGAGCAA | 1.51
AGUUCGCGCCAAGAGCUCCAGCACAGUGAAAUGGACAGAAGGGCAGAGCAA | 1.91
AGUUCGCGCCGGGAGCUCCAUGACAGUGAAAUGGACAGAAGGGCAGAGCAA | 3.57
AGUUCGCGCCGGGAGCUCCAUUACAGUGAAAUGGACAGAAGGGCAGAGCAA | 1.36
AGUUCGCGCCGGGAGCUCCAUAACAGUGAAAUGGACAGAAGGGCAGAGCAA | 1.73
AGUUCGCGCCGGGAAUUCCAGCACAGUGAAAUGGACAGAAGGGCAGAGCAA | 3.21
AGUUCGCGCCGGGAAAUCCAGCACAGUGAAAUGGACAGAAGGGCAGAGCAA | 3.14
AGUUCGCGCCGGGAAGUCCAGCACAGUGAAAUGGACAGAAGGGCAGAGCAA | 3.04
AGUUCGCGCCGGUUGCUCCAGCACAGUGAAAUGGACAGAAGGGCAGAGCAA | 1.35
AGUUCGCGCCGGUGGCUCCAGCACAGUGAAAUGGACAGAAGGGCAGAGCAA | 1.28
AGUUCGCGCCGGUCGCUCCAGCACAGUGAAAUGGACAGAAGGGCAGAGCAA | 1.67
AGUUCGCGCCGGGAGCUCCAGCAAUGUGAAAUGGACAGAAGGGCAGAGCAA | 2.85
AGUUCGCGCCGGGAGCUCCAGCAAGGUGAAAUGGACAGAAGGGCAGAGCAA | 3.65
AGUUCGCGCCCCGAGCUCCAGCACAGUGAAAUGGACAGAAGGGCAGAGCAA | 1.04
AGUUCGCGCCCAGAGCUCCAGCACAGUGAAAUGGACAGAAGGGCAGAGCAA | 1.1
AGUUCGCGCCCUGAGCUCCAGCACAGUGAAAUGGACAGAAGGGCAGAGCAA | 0.699
AGUUCGCGCCGGGAGCUCCAGCACAGUGAAAUGGACAGAAGGGACGAGCAA | 4.3
AGUUCGCGCCGGGAGCUCCAGCACAGUGAAAUGGACAGAAGGGAUGAGCAA | 5.86
AGUUCGCGCCGGGAGCUCCAGCACAGUGAAAUGGACAGAAGGGAGGAGCAA | 5.42
AGUUCGCGCCGAUAGCUCCAGCACAGUGAAAUGGACAGAAGGGCAGAGCAA | 0.589
AGUUCGCGCCGACAGCUCCAGCACAGUGAAAUGGACAGAAGGGCAGAGCAA | 1.55
AGUUCGCGCCGAAAGCUCCAGCACAGUGAAAUGGACAGAAGGGCAGAGCAA | 1.51

Variant | exon inclusion enrichment index
AGUUCGCGCCGGUAGCUCCAGCACAGUGAAAUGGACAGAAGGGCAGAGCAA | 0.534
AGUUCGCGCCGGAAGCUCCAGCACAGUGAAAUGGACAGAAGGGCAGAGCAA | 3.34
AGUUCGCGCCGGCAGCUCCAGCACAGUGAAAUGGACAGAAGGGCAGAGCAA | 1.53
AGUUCGCGCCUAGAGCUCCAGCACAGUGAAAUGGACAGAAGGGCAGAGCAA | 1.11
AGUUCGCGCCUCGAGCUCCAGCACAGUGAAAUGGACAGAAGGGCAGAGCAA | 1.54
AGUUCGCGCCUUGAGCUCCAGCACAGUGAAAUGGACAGAAGGGCAGAGCAA | 1.49
AGUUCGCGCCGGGAGCUCCAGCACAGUGAAAUGGAGCGAAGGGCAGAGCAA | 1.47
AGUUCGCGCCGGGAGCUCCAGCACAGUGAAAUGGAGGGAAGGGCAGAGCAA | 1.19
AGUUCGCGCCGGGAGCUCCAGCACAGUGAAAUGGAGUGAAGGGCAGAGCAA | 2.09
AGUUCGCGCCGGGAGCUCCAGCACAGUGAAAUGGACAGAAGGGGGGAGCAA | 1.17
AGUUCGCGCCGGGAGCUCCAGCACAGUGAAAUGGACAGAAGGGGCGAGCAA | 5.06
AGUUCGCGCCGGGAGCUCCAGCACAGUGAAAUGGACAGAAGGGGUGAGCAA | 3.36
AGUUCGCGCCGUUAGCUCCAGCACAGUGAAAUGGACAGAAGGGCAGAGCAA | 0.206
AGUUCGCGCCGUAAGCUCCAGCACAGUGAAAUGGACAGAAGGGCAGAGCAA | 0.404
AGUUCGCGCCGUCAGCUCCAGCACAGUGAAAUGGACAGAAGGGCAGAGCAA | 0.741
AGUUCGCGCCGGGACCUCCAGCACAGUGAAAUGGACAGAAGGGCAGAGCAA | 3.44
AGUUCGCGCCGGGAUCUCCAGCACAGUGAAAUGGACAGAAGGGCAGAGCAA | 3.45
AGUUCGCGCCGGGAACUCCAGCACAGUGAAAUGGACAGAAGGGCAGAGCAA | 2.71
AGUUCGCGCCGGGAGCUCCAGCAUAGUGAAAUGGACAGAAGGGCAGAGCAA | 1.76
AGUUCGCGCCGGGAGCUCCAGCAGAGUGAAAUGGACAGAAGGGCAGAGCAA | 4.23
AGUUCGCGCCGGGAGCUCCAGCACAGUGAAAUGGAUCGAAGGGCAGAGCAA | 2.78
AGUUCGCGCCGGGAGCUCCAGCACAGUGAAAUGGAUUGAAGGGCAGAGCAA | 2.2
AGUUCGCGCCGGGAGCUCCAGCACAGUGAAAUGGAUGGAAGGGCAGAGCAA | 2.77
AGUUCGCGCCGGCCGCUCCAGCACAGUGAAAUGGACAGAAGGGCAGAGCAA | 1.79
AGUUCGCGCCGGCUGCUCCAGCACAGUGAAAUGGACAGAAGGGCAGAGCAA | 1.88
